Measurements taken from article PMC11117068.

Molecular target: complement C3b (UniProt P01024)
Experiment: not stated; C3b binding affinity of polymorphic variants, data in Supplementary Table S3

A fold lower C3b binding affinity than the CPV-101 Ile62/Tyr402 variant of 1.5 fold was found for “moss-produced factor H Val62/His402 variant (from UniProt P08603 19-1231) (natural protein)” in this work.
